Experiment [1] concerns the target T1, Full-length ETV4 Ile372Ala (UniProt P43268 1-484, Ile372Ala).
T1 sequence (looked up): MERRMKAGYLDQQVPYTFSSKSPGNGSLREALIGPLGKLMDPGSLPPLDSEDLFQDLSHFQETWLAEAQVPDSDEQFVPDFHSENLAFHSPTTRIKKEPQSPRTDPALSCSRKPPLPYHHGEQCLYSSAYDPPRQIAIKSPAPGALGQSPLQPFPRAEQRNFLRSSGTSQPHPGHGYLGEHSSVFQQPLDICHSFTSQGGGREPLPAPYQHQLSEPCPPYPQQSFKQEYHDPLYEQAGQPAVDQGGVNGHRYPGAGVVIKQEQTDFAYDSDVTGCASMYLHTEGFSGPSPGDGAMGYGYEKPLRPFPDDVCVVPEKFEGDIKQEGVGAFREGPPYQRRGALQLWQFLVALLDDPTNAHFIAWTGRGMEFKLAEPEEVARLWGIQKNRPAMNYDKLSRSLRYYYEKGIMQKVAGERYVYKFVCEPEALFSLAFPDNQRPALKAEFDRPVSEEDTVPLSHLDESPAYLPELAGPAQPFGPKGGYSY
In words: BLI. (In general: Biolayer interferometry detects binding as a change in optical thickness at a sensor tip.)

Experiment [2] addresses T2, Full-length ETV4 Glu373Ala (UniProt P43268 1-484, Glu373Ala).
T2 sequence (looked up): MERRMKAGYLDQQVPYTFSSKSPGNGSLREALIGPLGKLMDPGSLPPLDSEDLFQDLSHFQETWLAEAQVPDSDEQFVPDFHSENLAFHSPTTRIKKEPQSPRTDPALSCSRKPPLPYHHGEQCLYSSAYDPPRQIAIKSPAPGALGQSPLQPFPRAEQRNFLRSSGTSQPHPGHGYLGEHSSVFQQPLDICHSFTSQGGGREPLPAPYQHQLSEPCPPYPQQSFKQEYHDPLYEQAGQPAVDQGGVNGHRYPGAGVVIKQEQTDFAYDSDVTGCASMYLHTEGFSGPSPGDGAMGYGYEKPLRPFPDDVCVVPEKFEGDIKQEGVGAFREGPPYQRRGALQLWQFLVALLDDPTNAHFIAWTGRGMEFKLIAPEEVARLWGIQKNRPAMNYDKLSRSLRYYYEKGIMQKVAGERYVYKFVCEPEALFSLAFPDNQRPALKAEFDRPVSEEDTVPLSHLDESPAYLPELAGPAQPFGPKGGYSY
In words: BLI.

B1: MED25 ACID (residues 391–553), biotinylated ligand for biolayer interferometry (domain or fragment, human, UniProt Q71SY5 391-553, looked up)
chain: GQQSVSNKLLAWSGVLEWQEKPKPASVDANTKLTRSLPCQVYVNHGENLKTEQWPQKLIMQLIPQQLLTTLGPLFRNSRMVQFHFTNKDLESLKGLYRIMGNGFAGCVHFPHTAPCEVRVLMLLYSSKKKIFMGLIPYDQSGFVNGIRQVITNHKQVQQQKLE
modifications: biotin (biotinylated; D-biotin added at the induction point)
As for B1, the binding result in experiment [1] and in experiment [2] was “binds” throughout.

The values above are taken from article PMC5632138 (Journal of molecular biology, 2017).
